Experiment: yeast display, Sf9 membrane polyspecificity reagent, FACS + sequencing; frameworks hold sequencing errors
Procedure, shortened: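 Using colony PCR, genes from sorted yeast display clones were amplified, then sequenced on MiSeq at 2 × 250 and filtered by CDR length. The clones had been stained with 10% biotinylated, detergent-solubilized Sf9 membrane reagent for 1 hour at 4 °C and sorted by FACS into low and high (top ~1%) gates on anti-HA and streptavidin fluorescence. Polyreactivity labels come from the gate of origin.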

Sequence | polyreactivity (PSR sort gate)
QVELVESGGGLVQAGGSLRLSCAASGFTFGYNAMGWYRQAPGKERELVAAIRLSGSSTYYADSVKGRFTISRDNAKNTVYLQMNSLNPEDTAVYYCAADGISHWLYRYDYWGQGTQVTVSS | low polyreactivity
QVELVESGGGLVQAGGSLRLSCAASGFTFQEYAMGWYRQAPGQETELVAAISTSGDYTYYADSVKGRFTISRDNAKHTVYFQMNSLKPEDTAVYYCATGVDTYSLTVEHDSWGQGTQLTVSS | low polyreactivity
QVELVESGGGLVQAGGSLRLSCAASGSTFDYNAMGWYRQAPGKERELVAAISRTANANYADSVKGRFTISRDNAKNTVYLQMNSLKPEDTSVYYCAADFRASKVHVRFCYWGQGTQVTVSS | low polyreactivity
QVELVESGGGLVQAGGSLRLSCAGSGIIFPYYVMGWYRQAPGKARELVAAINSGGRTYYADSVKGRFTISRDNAKNSVYLQMNSLNREDTAVYYCAATQSTNRMDHWGQGTQVTVSS | low polyreactivity
QVELVESGGGLVQAGGSLRLSCSASGSIFYKYAMGWYRQAPGKERELVAAIRVSGGSTYYADSVKGRFTISRDNAKNTVYLQMNSLKPEDTAVYYCAAESKFPWGYRYDYWGQGTQVTVSS | low polyreactivity
QVELVESGGGLVQPGGSLRLSCAASGRTLSRYTMGWYRQAPGKERELVAAISTSGSTYYADSVKGRFTISRDNAKNTVYLQMNSLKPEDTAVYYCAADRFGIGGIRGNDYWGQGTQVTVSS | high polyreactivity
QVELVVSGGGLVQPGGSLRLSCAASGSTFFNNGMGWYRQSPGKERELVATITKRGGNTYYADSVKGRFTISRDNAKNTVYLQMNSLKPEDTAVYYCAALRYKLPLGYWGQGTQVTVSS | high polyreactivity
QVHHVESCGGLVQAGGSLRLSCAASGRTFVYYAMGWYRQAPGKEREFVAAISRSGGRTSYAYSVKGRFTISRDNPKNTVYLPMNSLKPEDTAVYYCGAEKRTQPTSREYYWGQGTQVTVSS | high polyreactivity
QVHHVESGGGLVQAGGSLRLSCAASGRIFSYYAMGRYRPAPGKERELVAAITSRGTRTYYADSVKGRFTISRDNAKNTVYLQMNSLKPDDTAVYYCNVVSDIRLYFRFAYDYWGQGTQVTVSS | high polyreactivity
QVHHVESGGGLVQAGGSLRLSCAASGRTFRYKAMGWYRQAPGKETELVARISRTGGRTYYADSVKGRFTISRDNAKTTVYLQMNSLKPEDTAVYYCNARKRYYSTRYNYWGQGTQVTVSS | high polyreactivity
QVHHVESGGGLVQAGGSLRLSCAASGSIFWTYAMGWYRQAPGKERELVAAITSGSSTKYADSVKGRFTISRDNAKNTVYLQMYSLKPEDTAVYYCNARSYRGYRGVFLYSGLLGSDYWGQGTQVTVSS | low polyreactivity
QVHHVESGGGLVQARGSLRLSCAASGFIFSSYTMGWYRQAPGKERELLAAITSRGGSTYYADSVKGRVTISRDTAKNTVYLQMNSLKAEDTAVYYCNARRIPYSPYGVHEGNYWGQGTQVTVSS | high polyreactivity
QVHIVESGAGLVQAGGSLRLSCAASGSIFRYNAMGWYRQAPGKEREFVAAITYSGGSTYYADSVTGRFTISRDNAKNTLFLQMNSLKPEDTAVYYCAAGYCSRGSRDGYWGQGTQVSVSS | low polyreactivity
QVHIVESGGGLVQAGGSLRLSCAASGSNFTLYTMGWYRQAPGKERELVAAISTSGGRTYYADSVKGRFTISRDNAKNTVYLQMNSLKPEDTAVYYCNAGYWYYGQDDYWGQGTQVTVSS | high polyreactivity
QVHIVETGGGLFQAGGSLRLSSASSGRIFPVYAMGWYRQAPGKERELVAAISRRGGSSYYEDSVKGRFTISRDNAKNTVYLHMNCLKTEDTEVNYFAATAYYYWWWYGGDMDYWGQGTQVSVSS | high polyreactivity
QVHLAESAAGLDQAGGRLRLSCAAYGIIFYYYAMGWYRQAPGKERELVAAISGTGGRTYYADSVKGRFTISRDNAKNTVYLQMNSLKPEDTAVYYCNADDTPVPSIRFDSWGQGTQVTVSS | low polyreactivity
QVHLEESGRRLVQAGGSLRLSCAASGSIFSYYAMGWSRPAPGKEWELVAAISQSGGSTYYADSVKGRFTISGDNAKNTVDLQMNSLKPEDTAVYSCNAVARHTRAKYGSWGQGTQVTVSS | low polyreactivity
